Measurements taken from publication PMC10465243, “Identification of sucrose synthase from Micractinium conductrix to favor biocatalytic glycosylation” (Frontiers in Microbiology, 2023).

Columns and labels:
[1] = system: O=c1ccn([C@@H]2O[C@H](COP(=O)(O)OP(=O)(O)O)[C@@H](O)[C@H]2O)c(=O)[nH]1; test: purified protein; assay type: biochemical, Micractinium conductrix; details: 200 mM sucrose, 50 mM HEPES-NaOH pH 7.0, 37°C, sucrose cleavage direction, apparent
[2] = system: OC[C@H]1O[C@@](CO)(O[C@H]2O[C@H](CO)[C@@H](O)[C@H](O)[C@H]2O)[C@@H](O)[C@@H]1O; test: purified protein; assay type: biochemical, Micractinium conductrix; details: 2 mM UDP, 50 mM HEPES-NaOH pH 7.0, 37°C, sucrose cleavage direction, apparent

McSuSy (Micractinium conductrix; S31D), sequence (chain, as listed by the source S31D): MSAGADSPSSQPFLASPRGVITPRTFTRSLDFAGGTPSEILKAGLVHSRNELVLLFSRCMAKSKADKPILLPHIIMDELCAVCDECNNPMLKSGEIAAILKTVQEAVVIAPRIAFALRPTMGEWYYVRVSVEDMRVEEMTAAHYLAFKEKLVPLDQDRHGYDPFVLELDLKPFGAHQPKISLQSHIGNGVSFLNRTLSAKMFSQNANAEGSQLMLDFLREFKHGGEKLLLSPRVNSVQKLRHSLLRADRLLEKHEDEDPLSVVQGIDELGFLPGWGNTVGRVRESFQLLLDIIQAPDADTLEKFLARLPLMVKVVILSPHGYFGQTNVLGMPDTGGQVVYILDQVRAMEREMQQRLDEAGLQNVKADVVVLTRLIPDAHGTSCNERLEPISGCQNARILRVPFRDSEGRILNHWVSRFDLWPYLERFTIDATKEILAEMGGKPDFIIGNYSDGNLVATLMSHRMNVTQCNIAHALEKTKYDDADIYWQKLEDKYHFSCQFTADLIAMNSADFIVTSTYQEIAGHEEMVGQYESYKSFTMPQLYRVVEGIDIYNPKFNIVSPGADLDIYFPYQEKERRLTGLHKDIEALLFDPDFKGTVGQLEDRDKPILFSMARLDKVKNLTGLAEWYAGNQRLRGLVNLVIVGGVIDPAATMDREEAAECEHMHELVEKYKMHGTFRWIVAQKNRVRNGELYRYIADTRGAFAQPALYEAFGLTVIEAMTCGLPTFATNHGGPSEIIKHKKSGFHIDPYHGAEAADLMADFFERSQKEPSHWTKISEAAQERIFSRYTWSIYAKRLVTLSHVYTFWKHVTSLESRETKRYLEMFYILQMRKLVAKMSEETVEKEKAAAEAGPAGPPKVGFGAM
McSuSy (Micractinium conductrix), sequence (chain, as listed by the source): as the sequence (chain, as listed by the source S31D) above, with D31S counted along it

Substance	Km [1] [mM]	Vmax [1] [µmol/min/mg]	kcat [1] [s⁻¹]	kcat/Km [1] [M⁻¹ s⁻¹]	Km [2] [mM]
McSuSy (Micractinium conductrix; S31D)	0.092	11.4	19	206000	88
McSuSy (Micractinium conductrix)	0.14	10.4	17.3	124000	90
